Assay results from paper PMC8595303, “Dramatic activation of an antibody by a single amino acid change in framework” (Scientific Reports, 2021).
Where a chain is given by its changes, count along the chain named. Numbers in names are those of the source. Values belong to the binder of their own block, whether it stands above or below them.

What was measured:
human mature TGFβ1 [1] = target: T1, human mature TGFβ1 (Homo sapiens, UniProt P01137); experiment: SPR; Biacore T200; antibody captured on a Protein A sensor chip (about 90 RU); mature TGFβ isoform injected, five-fold dilutions 0.008 nM to 5 nM; HBS-EP pH 7.4, 150 mM NaCl; 37 °C; 100 μl/min; 3 min association, 60 min dissociation; one-to-one Langmuir model, global fit; conditions: both partners purified
T1 construct: Transforming Growth Factor-beta 1, human, mature form (cut from the precursor); also called TGFb1; source: bought: PeproTech
T1 sequence (P01137 279-390): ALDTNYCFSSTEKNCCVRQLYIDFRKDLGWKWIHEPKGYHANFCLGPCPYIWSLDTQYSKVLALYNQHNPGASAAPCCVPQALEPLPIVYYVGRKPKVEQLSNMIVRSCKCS

human mature TGFβ3 [2] = target: T2, human mature TGFβ3 (Homo sapiens, UniProt P10600); experiment: as above; conditions: both partners purified
T2 construct: Transforming Growth Factor-beta 3, human, mature form (cut from the precursor); also called TGFb3; source: bought: PeproTech
T2 sequence (P10600 301-412): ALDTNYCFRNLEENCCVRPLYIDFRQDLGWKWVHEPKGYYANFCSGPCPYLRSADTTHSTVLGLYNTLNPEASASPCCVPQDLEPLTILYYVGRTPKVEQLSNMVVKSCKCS

[3] = target: T3, human mature TGFβ2 (PeproTech) (Homo sapiens, UniProt P61812); experiment: as above; conditions: both partners purified
T3 construct: Transforming Growth Factor-beta 2, human, mature form (cut from the precursor); also called TGFb2; source: bought: PeproTech
T3 sequence (P61812 303-414): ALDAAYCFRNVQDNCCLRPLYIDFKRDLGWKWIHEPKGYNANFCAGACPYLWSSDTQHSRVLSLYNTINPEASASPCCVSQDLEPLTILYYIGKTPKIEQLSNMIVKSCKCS

human mature TGFβ1 [4] = target: T1, human mature TGFβ1; experiment: cell-based or functional assay
human mature TGFβ3 [5] = target: T2, human mature TGFβ3; experiment: cell-based or functional assay
[6] = target: T3, human mature TGFβ2 (PeproTech); experiment: cell-based or functional assay
human mature TGFβ3 [7] = target: T2, human mature TGFβ3; experiment: cell-based or functional assay; remark: listed apart in the source
[8] = target: T3, human mature TGFβ2 (PeproTech); experiment: cell-based or functional assay; remark: listed apart in the source
human mature TGFβ1 [9] = target: T1, human mature TGFβ1; experiment: SPR; Biacore T200; antibody captured on a Protein A sensor chip (about 90 RU); mature TGFβ isoform injected, five-fold dilutions 0.008 nM to 5 nM; HBS-EP pH 7.4, 150 mM NaCl; 37 °C; 100 μl/min; 3 min association, 60 min dissociation; one-to-one Langmuir model, global fit; conditions: both partners purified; remark: listed apart in the source
human mature TGFβ3 [10] = target: T2, human mature TGFβ3; experiment: as above; conditions: both partners purified; remark: listed apart in the source
[11] = target: T3, human mature TGFβ2 (PeproTech); experiment: as above; conditions: both partners purified; remark: listed apart in the source

Kd (human mature TGFβ1 [1]): > 5 nM
binding result (human mature TGFβ1 [1]): no binding (tested: 5 nM)
Kd (human mature TGFβ3 [2]): 0.0121 nM
Kd [3]: 0.0096 nM
TGFβ inhibition by HEK-Blue cells (IC50: nM), TGFb1 (human mature TGFβ1 [4]): > 667 nM
TGFβ inhibition by HEK-Blue cells (IC50: nM), TGFb3; Blocking: Complete (human mature TGFβ3 [5]): 0.2 nM
TGFβ inhibition by HEK-Blue cells (IC50: nM), TGFb2; Blocking: Complete [6]: 3.9 nM
B1: humanized 4A11 variant 3 (antibody, V domains shown)
VH: EQQLQESGPGLVKPSETLSLTCTVTGFSLSSYTVNWVRQPAGKGLEWIGYISYGGSAYYASWANGRFTISKDSSKNQVSLKLSSVTAADTAVYFCARHMQVGGAPTGSMAAFDPWGPGTLVTVSS
VL: DAVLTQSPDSLAVSLGERATINCQSSQSVYNNNYLSWFQQKPGQPPKLLIYGASTLTSGVPDRFSGSGSGTDFTLTISSLQAEDVAVYYCAGGYSGSSDKYAFGGGTKVEIK
notes: as the VH of m12 (h4A11.v7): rbt4A11 CDRs and rabbit Vernier residues grafted on human germline IGHV4-59*06; as the VL of m6 (h4A11.v1): rbt4A11 CDRs and rabbit Vernier residues grafted on human germline IGKV4-1*01; human IgG1; also called h4A11.v3; v3; source: Expi293F, transient, purified (Protein A, SEC)

TGFβ inhibition by HEK-Blue cells (IC50: nM), TGFb3; Blocking: Incomplete (human mature TGFβ3 [7]): > 667 nM
TGFβ inhibition by HEK-Blue cells (IC50: nM), TGFb2; Blocking: Incomplete [8]: > 667 nM
Kd (human mature TGFβ1 [9]): > 5 nM
binding result (human mature TGFβ1 [9]): no binding (tested: 5 nM)
Kd (human mature TGFβ3 [10]): 0.0228 nM
Kd [11]: 0.0096 nM
B2: h4A11.v7.2 (antibody, V domains shown)
VH: B1 VH with S19R, S79W
VL: EAVLTQSPGTLSLSPGERATLSCQSSQSVYNNNYLSWFQQKPGQPPRLLIYGASTLTSGVPDRFSGSGSGTDFTLTISRLEPEDFAVYYCAGGYSGSSDKYAFGGGTKVEIK
notes: as the VH of m12 (h4A11.v7); numbers count on: Kabat numbering of the heavy chain; as the VL of m12 (h4A11.v7); human IgG1; also called v7.2_S19R, S79W; source: Expi293F, transient, purified (Protein A, SEC)

TGFβ inhibition by HEK-Blue cells (IC50: nM), TGFb3; Blocking: Incomplete (human mature TGFβ3 [7]): > 667 nM
TGFβ inhibition by HEK-Blue cells (IC50: nM), TGFb2; Blocking: Incomplete [8]: > 667 nM
Kd (human mature TGFβ1 [9]): > 5 nM
binding result (human mature TGFβ1 [9]): no binding (tested: 5 nM)
Kd (human mature TGFβ3 [10]): 0.0156 nM
Kd [11]: 0.0097 nM
B3: h4A11.v7.6 (antibody, V domains shown)
VH: B1 VH with S19R, S79W, K81R
VL: B2 VL
notes: as the VH of m12 (h4A11.v7); numbers count on: Kabat numbering of the heavy chain; as the VL of m12 (h4A11.v7); human IgG1; also called v7.6_S19R, S79W, K81R; source: Expi293F, transient, purified (Protein A, SEC)

TGFβ inhibition by HEK-Blue cells (IC50: nM), TGFb3; Blocking: Incomplete (human mature TGFβ3 [7]): > 667 nM
TGFβ inhibition by HEK-Blue cells (IC50: nM), TGFb2; Blocking: Incomplete [8]: > 667 nM
Kd (human mature TGFβ1 [9]): > 5 nM
binding result (human mature TGFβ1 [9]): no binding (tested: 5 nM)
Kd (human mature TGFβ3 [10]): 0.0188 nM
Kd [11]: 0.0112 nM
B4: h4A11.v7.4 (antibody, V domains shown)
VH: B1 VH with S19R, S79Y, K81R
VL: B2 VL
notes: as the VH of m12 (h4A11.v7); numbers count on: Kabat numbering of the heavy chain; as the VL of m12 (h4A11.v7); human IgG1; also called v7.4_S19R, S79Y, K81R; source: Expi293F, transient, purified (Protein A, SEC)

TGFβ inhibition by HEK-Blue cells (IC50: nM), TGFb3; Blocking: Incomplete (human mature TGFβ3 [7]): > 667 nM
TGFβ inhibition by HEK-Blue cells (IC50: nM), TGFb2; Blocking: Incomplete [8]: > 667 nM
Kd (human mature TGFβ1 [9]): > 5 nM
binding result (human mature TGFβ1 [9]): no binding (tested: 5 nM)
Kd (human mature TGFβ3 [10]): 0.0405 nM
Kd [11]: 0.0107 nM
B5: h4A11.v7.1 (antibody, V domains shown)
VH: B1 VH with S19R, S79Y
VL: B2 VL
notes: as the VH of m12 (h4A11.v7); numbers count on: Kabat numbering of the heavy chain; as the VL of m12 (h4A11.v7); human IgG1; also called v7.1_S19R, S79Y; source: Expi293F, transient, purified (Protein A, SEC)

TGFβ inhibition by HEK-Blue cells (IC50: nM), TGFb3; Blocking: Incomplete (human mature TGFβ3 [7]): > 667 nM
TGFβ inhibition by HEK-Blue cells (IC50: nM), TGFb2; Blocking: Incomplete [8]: > 667 nM
Kd (human mature TGFβ1 [9]): > 5 nM
binding result (human mature TGFβ1 [9]): no binding (tested: 5 nM)
Kd (human mature TGFβ3 [10]): 0.0072 nM
Kd [11]: 0.0056 nM
B6: h4A11.v7.5 (antibody, V domains shown)
VH: B1 VH with S19R, S79W, K81Q
VL: B2 VL
notes: as the VH of m12 (h4A11.v7); numbers count on: Kabat numbering of the heavy chain; as the VL of m12 (h4A11.v7); human IgG1; also called v7.5_S19R, S79W, K81Q; source: Expi293F, transient, purified (Protein A, SEC)

TGFβ inhibition by HEK-Blue cells (IC50: nM), TGFb3; Blocking: Incomplete (human mature TGFβ3 [7]): > 667 nM
TGFβ inhibition by HEK-Blue cells (IC50: nM), TGFb2; Blocking: Incomplete [8]: > 667 nM
Kd (human mature TGFβ1 [9]): > 5 nM
binding result (human mature TGFβ1 [9]): no binding (tested: 5 nM)
Kd (human mature TGFβ3 [10]): 0.008 nM
Kd [11]: 0.0057 nM
B7: h4A11.v7.3 (antibody, V domains shown)
VH: B1 VH with S19R, S79Y, K81Q
VL: B2 VL
notes: as the VH of m12 (h4A11.v7); numbers count on: Kabat numbering of the heavy chain; as the VL of m12 (h4A11.v7); human IgG1; also called v7.3_S19R, S79Y, K81Q; source: Expi293F, transient, purified (Protein A, SEC)

Kd (human mature TGFβ1 [1]): > 5 nM
binding result (human mature TGFβ1 [1]): no binding (tested: 5 nM)
Kd (human mature TGFβ3 [2]): 0.0101 nM
Kd [3]: 0.01 nM
TGFβ inhibition by HEK-Blue cells (IC50: nM), TGFb1 (human mature TGFβ1 [4]): > 667 nM
TGFβ inhibition by HEK-Blue cells (IC50: nM), TGFb3; Blocking: Complete (human mature TGFβ3 [5]): 0.1 nM
TGFβ inhibition by HEK-Blue cells (IC50: nM), TGFb2; Blocking: Complete [6]: 1.9 nM
B8: humanized 4A11 variant 4 (antibody, V domains shown)
VH: B1 VH
VL: DAQLTQSPSSLSASVGDRVTITCQSSQSVYNNNYLSWFQQKPGKPPKLLIYGASTLTSGVPSRFSGSGSGTDFTLTISSLQPEDFATYYCAGGYSGSSDKYAFGGGTKVEIK
notes: as the VH of m12 (h4A11.v7): rbt4A11 CDRs and rabbit Vernier residues grafted on human germline IGHV4-59*06; as the VL of m7 (h4A11.v2): rbt4A11 CDRs and rabbit Vernier residues grafted on human germline IGKV1D-39*01; human IgG1; also called h4A11.v4; v4; source: Expi293F, transient, purified (Protein A, SEC)
